Article PMC5030135 (Nature chemical biology, 2016)

Biological target: GDI.Cdc42 FLARE biosensor, wild type (Cdc42 with an N-terminal FRET binding antenna) (UniProt P60953 1-191)
Assay: FRET or BRET

Chain of GDI.Cdc42 FLARE biosensor, wild type (Cdc42 with an N-terminal FRET binding antenna) (P60953 whole entry): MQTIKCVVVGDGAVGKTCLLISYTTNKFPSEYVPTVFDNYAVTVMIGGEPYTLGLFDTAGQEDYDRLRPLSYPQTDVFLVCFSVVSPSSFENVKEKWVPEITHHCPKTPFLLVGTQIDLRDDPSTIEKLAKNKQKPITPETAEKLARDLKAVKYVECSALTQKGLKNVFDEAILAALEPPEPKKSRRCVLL

B1: RhoGDI1 (RhoGDIα), wild type, unlabeled, co-expressed in excess (natural protein)
chain: MAEQEPTAEQLAQIAAENEEDEHSVNYKPPAQKSIQEIQELDKDDESLRKYKEALLGRVAVSADPNVPNVVVTGLTLVCSSAPGPLELDLTGDLESFKKQSFVLKEGVEYRIKISFRVNREIVSGMKYIQHTYRKGVKIDKTDYMVGSYGPRAEEYEFLTPVEEAPKGMLARGSYSIKSRFTDDDKTDHLSWEWNLTIKKDWKD
  increase in FRET/CFP emission ratio: 218%
